Changes are numbered by the printed parent chain. Numbers in names are those of the source. Like-named read-outs stand apart in the source and are kept apart here.
B1: Listeria monocytogenes GpsB, full-length wild type (natural protein, L. monocytogenes, UniProt Q8Y614 1-113, looked up)
chain: MTSEQFEYHLTGKEILEKEFKTGLRGYSPEDVDEFLDMVIKDYSTFTQEIEALQAENIRLVQELDNAPLRTSTQPAPTFQAAAQPAGTTNFDILKRLSNLEKHVFGNKLDDNE
B2: Listeria monocytogenes GpsB F91A, full length (natural protein, L. monocytogenes, UniProt Q8Y614 1-113, looked up)
chain: B1 chain with F91A
B3: Listeria monocytogenes GpsB F91A F105A double mutant, full length (natural protein, L. monocytogenes, UniProt Q8Y614 1-113, looked up)
chain: B1 chain with F91A, F105A
B4: Bacillus subtilis GpsB T75D, full length (natural protein, B. subtilis, UniProt P0CI74 1-98, looked up)
chain: MLADKVKLSAKEILEKEFKTGVRGYKQEDVDKFLDMIIKDYETFHQEIEELQQENLQLKKQLEEASKKQPVQSNDTNFDILKRLSNLEKHVFGSKLYD
B5: Bacillus subtilis GpsB T75E, full length (natural protein, B. subtilis, UniProt P0CI74 1-98, looked up)
chain: B4 chain with D75E

How the values were obtained:
SEC-MALS [1] = target: the molecule itself; assay: SEC-MALS
SEC [2] = target: the molecule itself; assay: SEC
SEC-MALS [3] = target: the molecule itself; assay: SEC-MALS; remark: listed apart in the source
SEC [4] = target: the molecule itself; assay: SEC; remark: listed apart in the source

Row | Protein | stoichiometry N (SEC-MALS [1]) | binding result (SEC [4]) | also measured
1 | B1 | 6 |  | 
2 | B2 |  |  | binding result (SEC [2]): binds
3 | B3 | 2 |  | stoichiometry N (SEC-MALS [3]): 3
4 | B4 |  | binds | 
5 | B5 |  | binds | 

Source: publication PMC5111876 (Microbial Drug Resistance, 2016)
